Experimental data from PMC11205257.
Like-named read-outs stand apart in the source and are kept apart here.

Legend:
[1] = target: GRAB CRF1.0 sensor (human (GPCR scaffold cDNA)); assay: other fluorescence titration
[2] = target: GRAB CRF1.0 sensor (human (GPCR scaffold cDNA)); assay: other fluorescence titration; remark: listed apart in the source

Row | Binder | EC50 [1] [nM] | EC50 [2] [nM]
1 | SEEPPISLDLTFHLLREVLEMARAEQLAQQAHSNRKLMEIIGK [corticotropin-releasing factor (CRF)] | 18.6 | 33
2 | DNPSLSIDLTFHLLRTLLELARTQSQRERAEQNRIIFDSVGK [urocortin 1 (UCN1)] |  | 69
